Measured values published in the RNAGym collection of RNA variant scans (doi:10.7554/elife.80360).

B1: Hairpin Ribozyme (parent)
chain: GUCCUCUUUCACGUGCGCGUGAAAGAGAGAAGUGAACCAGAGAAACACACGUUGUGGUAUAUUACCUGGUA

Variants of: B1
Test: self-cleavage, relative activity (ratio to wild type); higher = more cleavage; co-transcriptional

Going from C3G U52G to C3A A31C, the self-cleavage falls from 0.212 to 0.144.

Compared with C3A A31U, C3A C16A is higher in self-cleavage: 0.155 for the first, 0.677 for the second.

First: C3A A49U
Second: U2G U55C
The self-cleavage of the first is lower: 0.0975 for the first, 0.168 for the second.

First: C3A A47U
Second: C3G U53A
The self-cleavage of the first is lower: 0.112 for the first, 0.212 for the second.

Going from C3A U14C to C3A U14A, the self-cleavage falls from 0.677 to 0.525.

First: U2G U5C
Second: U2G U5A
The self-cleavage of the first is lower: 0.271 for the first, 0.288 for the second.

First: C3A G51C
Second: C3G C46G
The self-cleavage of the first is higher: 0.615 for the first, 0.0681 for the second.

First: U2G U52A
Second: U2G U52G
The self-cleavage of the first is lower: 0.33 for the first, 0.458 for the second.

Compared with U2G U52C, C3G G68U is lower in self-cleavage: 0.346 for the first, 0.102 for the second.

Going from C3A U8A to C3G A47U, the self-cleavage falls from 0.547 to 0.0452.

First: C3G C66G
Second: U2G G19C
The self-cleavage of the first is lower: 0.0857 for the first, 0.338 for the second.

Going from U2G C38U to U2G C12A, the self-cleavage rises from 0.24 to 0.304.

Going from U2G C12U to C3A G13U, the self-cleavage rises from 0.321 to 0.568.

Compared with C3A A22G, C3A A22U is lower in self-cleavage: 0.706 for the first, 0.702 for the second.

First: C3A U60A
Second: C3A U53A
The self-cleavage of the first is lower: 0.515 for the first, 0.662 for the second.

First: C3A U53C
Second: C3G G27C
The self-cleavage of the first is higher: 0.664 for the first, 0.0838 for the second.

Going from C3G G27A to C3G C4A, the self-cleavage falls from 0.266 to 0.185.

Compared with C3G G42A, U2G G57A is higher in self-cleavage: 0.0837 for the first, 0.169 for the second.

First: C3G A39G
Second: C3G A39U
The self-cleavage of the first is lower: 0.108 for the first, 0.114 for the second.

Compared with C3A A26U, C3A G29C is lower in self-cleavage: 0.653 for the first, 0.102 for the second.

First: C3A G29A
Second: C3A C46A
The self-cleavage of the first is lower: 0.112 for the first, 0.219 for the second.

First: C3A C37U
Second: C3G U14G
The self-cleavage of the first is higher: 0.543 for the first, 0.145 for the second.

First: C3G U7A
Second: U2G C4G
The self-cleavage of the first is higher: 0.321 for the first, 0.165 for the second.

First: C3A A41G
Second: C3G A26C
The self-cleavage of the first is higher: 0.7 for the first, 0.276 for the second.

Going from C3G A36G to C3G C16A, the self-cleavage rises from 0.255 to 0.324.

Going from C3G U8G to C3A A36U, the self-cleavage rises from 0.204 to 0.319.

Going from C3A A36G to C3A A59U, the self-cleavage falls from 0.712 to 0.126.

First: C3A G27U
Second: C3A G27A
The self-cleavage of the first is lower: 0.15 for the first, 0.27 for the second.

Going from C3A U70C to C3A U70A, the self-cleavage falls from 0.675 to 0.377.

First: C3A U70G
Second: C3A G34U
The self-cleavage of the first is lower: 0.708 for the first, 1.34 for the second.

Going from C3G C10G to C3G A64C, the self-cleavage falls from 0.182 to 0.129.

Going from C3G A64G to U2G U70A, the self-cleavage rises from 0.126 to 0.191.

Going from C3A A30U to C3G U9A, the self-cleavage falls from 0.16 to 0.112.

Compared with U2G U53G, C3A C38U is higher in self-cleavage: 0.267 for the first, 0.416 for the second.

Going from C3A C18G to U2G G40C, the self-cleavage falls from 0.602 to 0.126.

Compared with U2G G40U, U2G U14C is higher in self-cleavage: 0.072 for the first, 0.277 for the second.

Going from C3A G42U to C3A G42A, the self-cleavage falls from 0.249 to 0.146.

Compared with C3G C12A, C3G C12U is higher in self-cleavage: 0.254 for the first, 0.26 for the second.

First: U2G G25A
Second: U2G G25U
The self-cleavage of the first is lower: 0.224 for the first, 0.359 for the second.

Compared with C3G A35C, C3G C6A is lower in self-cleavage: 0.36 for the first, 0.267 for the second.

First: U2G G54U
Second: C3G C50G
The self-cleavage of the first is higher: 0.128 for the first, 0.127 for the second.

First: C3G U20A
Second: C3A C6G
The self-cleavage of the first is lower: 0.222 for the first, 0.455 for the second.

Going from U2G U62A to C3G G51U, the self-cleavage rises from 0.0977 to 0.342.

Compared with U2G A45G, C3G C65U is lower in self-cleavage: 0.118 for the first, 0.0576 for the second.

First: C3G C65A
Second: U2G G56A
The self-cleavage of the first is higher: 0.263 for the first, 0.0909 for the second.

First: C3A U20C
Second: U2G C46G
The self-cleavage of the first is higher: 0.728 for the first, 0.12 for the second.

First: C3G G69C
Second: C3A G19A
The self-cleavage of the first is lower: 0.177 for the first, 0.59 for the second.

Going from U2G U63C to U2G U63G, the self-cleavage rises from 0.142 to 0.252.

Going from U2G U67G to C3A A64U, the self-cleavage rises from 0.194 to 0.249.

Going from C3A G57A to C3A G40U, the self-cleavage rises from 0.131 to 0.194.

First: C3G G34U
Second: C3G G34A
The self-cleavage of the first is higher: 1.01 for the first, 0.27 for the second.

First: U2G C10A
Second: U2G C50A
The self-cleavage of the first is higher: 0.258 for the first, 0.15 for the second.

Going from C3A C65G to C3G C48A, the self-cleavage falls from 0.314 to 0.0662.

First: C3G C48G
Second: C3G A49C
The self-cleavage of the first is higher: 0.196 for the first, 0.0939 for the second.

Going from C3G A49U to C3A U55G, the self-cleavage rises from 0.188 to 0.193.

Going from C3A U55C to U2G G68A, the self-cleavage falls from 0.261 to 0.166.

First: U2G G68U
Second: U2G G68C
The self-cleavage of the first is higher: 0.2 for the first, 0.135 for the second.

Going from C3G A22U to C3G G17C, the self-cleavage falls from 0.246 to 0.198.

First: C3A A24C
Second: C3G A71G
The self-cleavage of the first is higher: 0.775 for the first, 0.308 for the second.

First: C3A G21C
Second: U2G A71U
The self-cleavage of the first is higher: 0.489 for the first, 0.283 for the second.

Going from U2G U8G to C3G A41G, the self-cleavage falls from 0.471 to 0.193.

Going from U2G C66A to U2G G32C, the self-cleavage rises from 0.147 to 0.155.

First: U2G G32U
Second: U2G G32A
The self-cleavage of the first is higher: 0.119 for the first, 0.0684 for the second.

Compared with C3G C37A, C3A G15U is higher in self-cleavage: 0.162 for the first, 0.761 for the second.

Compared with C3A G15A, C3A A61G is lower in self-cleavage: 0.524 for the first, 0.186 for the second.

First: C3A A23G
Second: U2G C3G
The self-cleavage of the first is lower: 0.613 for the first, 0.785 for the second.

Going from U2G G15U to U2G G15C, the self-cleavage falls from 0.395 to 0.342.

Going from C3G A23U to C3G A23G, the self-cleavage falls from 0.28 to 0.126.

Going from C3A U63A to U2G G42U, the self-cleavage falls from 0.0798 to 0.0398.

Going from U2G G34U to C3G G19A, the self-cleavage falls from 0.984 to 0.2.

Compared with C3G G19C, C3G G19U is higher in self-cleavage: 0.229 for the first, 0.26 for the second.

First: U2G C18U
Second: C3A C4A
The self-cleavage of the first is higher: 0.378 for the first, 0.204 for the second.

Going from C3G A11C to C3G A11G, the self-cleavage rises from 0.137 to 0.18.

First: C3G G15U
Second: C3A A11U
The self-cleavage of the first is lower: 0.29 for the first, 0.517 for the second.

Compared with C3A G25U, C3A G68U is lower in self-cleavage: 0.406 for the first, 0.195 for the second.

Compared with C3G G32A, C3A C10G is higher in self-cleavage: 0.0849 for the first, 0.631 for the second.

Compared with U2G A61U, C3G A44G is lower in self-cleavage: 0.191 for the first, 0.15 for the second.

Going from U2G U33G to U2G U33C, the self-cleavage falls from 0.171 to 0.0578.

Going from C3G A45U to U2G G27C, the self-cleavage falls from 0.122 to 0.112.

Compared with C3A A28U, C3A G17A is higher in self-cleavage: 0.689 for the first, 0.785 for the second.

First: C3A G17C
Second: C3G G21A
The self-cleavage of the first is higher: 0.375 for the first, 0.173 for the second.

Going from C3G G21C to C3A A71G, the self-cleavage rises from 0.154 to 0.715.

Going from U2G G29U to U2G U60C, the self-cleavage rises from 0.137 to 0.373.

Variant C3A U52G has a self-cleavage of 0.538.
